Laboratory results reported in US20220227882A1 (TRUSTEES OF TUFTS COLLEGE, published 2022).
Values belong to the molecule of their own block, whether it stands above or below them.

Tests used:
[1] = molecular target: Full-length human ADAM8 on cells (HEK293-ADAM8 stable or transfected cells; also endogenous ADAM8 of breast cell lines and PDX tumors) (human) (UniProt P78325); assay: FACS, HEK293-ADAM8 cells, column 1 µg/ml, negative control
[2] = molecular target: Full-length human ADAM8 on cells (HEK293-ADAM8 stable or transfected cells; also endogenous ADAM8 of breast cell lines and PDX tumors) (human) (UniProt P78325); assay: FACS, HEK293-ADAM8 cells, column 10 µg/ml, negative control
[3] = molecular target: Full-length human ADAM8 on cells (HEK293-ADAM8 stable or transfected cells; also endogenous ADAM8 of breast cell lines and PDX tumors) (human) (UniProt P78325); assay: FACS, HEK293-ADAM8 cells, column 0.1 µg/ml, negative control
[4] = molecular target: Full-length human ADAM8 on cells (HEK293-ADAM8 stable or transfected cells; also endogenous ADAM8 of breast cell lines and PDX tumors) (human) (UniProt P78325)
[5] = molecular target: Recombinant human ADAM8 (rHuADAM8) ectodomain protein (aa 17-497), ACRO Biosystems AD8-H5223 (human) (UniProt P78325); assay: adhesion of α9β1 integrin CHO cells to coated rHuADAM8, antibody 20 µg/ml, vs isotype control IgG; mean ± S.D., n=3
[6] = molecular target: T1, Recombinant human ADAM8 (rHuADAM8) ectodomain protein (aa 17-497), ACRO Biosystems AD8-H5223 (human, UniProt P78325 17-497); assay: ELISA on coated rHuADAM8, antibody 0 to 2.5 nM
T1 construct: Bought protein made in HEK293 cells; The protein clips off its own prodomain (aa 17-191); also called rhADAM8; immunogen
T1 sequence: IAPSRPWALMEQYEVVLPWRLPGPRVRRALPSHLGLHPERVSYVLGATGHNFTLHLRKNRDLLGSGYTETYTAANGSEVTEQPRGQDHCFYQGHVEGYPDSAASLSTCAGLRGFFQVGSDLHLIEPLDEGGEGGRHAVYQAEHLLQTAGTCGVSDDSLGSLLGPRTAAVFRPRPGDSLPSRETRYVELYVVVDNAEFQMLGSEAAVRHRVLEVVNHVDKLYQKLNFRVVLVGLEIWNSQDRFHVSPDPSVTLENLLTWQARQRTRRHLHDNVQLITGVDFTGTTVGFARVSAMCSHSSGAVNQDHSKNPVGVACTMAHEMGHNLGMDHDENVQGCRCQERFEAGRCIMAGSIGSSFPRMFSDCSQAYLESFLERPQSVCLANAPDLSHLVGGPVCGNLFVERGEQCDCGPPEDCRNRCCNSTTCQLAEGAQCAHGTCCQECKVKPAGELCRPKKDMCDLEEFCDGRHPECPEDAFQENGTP

[7] = molecular target: Quenched fluorescent CD23 peptide (Biozyme, PEPDAB013m001)

Molecule: MAB1031 anti-ADAM8 antibody (R&D Systems)
% inhibition of CD23 cleavage (MP activity), HEK293 cells co-expressing CD23 and ADAM8, antibody 20 µg/ml [4]: 65.8 % inhibition
% inhibition of transendothelial migration of MDA-MB-231 cells through HUVEC, antibody 20 µg/ml [4]: 42.4 % inhibition
% inhibition of α9β1 integrin binding to ADAM8 [5]: 63.4 % inhibition

B1: chADP2-IgG1 (antibody, V domains shown)
VH: EVKLVESGGGLVQPGGSLSLSCAASGFSFPDYYMSWVRQPPGKALEWLGFIRDSANGYTTEYIASVKGRFTFSRDNSQSILYLQMNALRAEDSATYYCARYSRYYGMDYWGQGTSVTVSS
VL: SIVMTQTPKILLVSAGDRVTITCKASQTVNYDVAWYQQKPGQSPKPVIYFASNRYTGVPDRFTGSGFGTDFTFTISTVQAEDLAVYFCQQDYSAPWTFGGGTKLEIKR
notes: Mouse ADP2 VL and VH joined to germline human IgG1 CL and CH; made in CHO cells; also called chimeric ADP2
Kd [6]: 36.6 pM

B3: Recombinant human ADAM8 (rHuADAM8) ectodomain protein (aa 17-497), ACRO Biosystems AD8-H5223 (protein)
chain: T1 sequence
fluorescence released from a quenched CD23 peptide over 24 hr [7]: An increase in fluorescence was seen over time in samples with rHuADAM8, which was inhibited in the presence of the chelating agent EDTA

The remaining lines, values ahead:

MFI [1]: 3.2 MFI
MFI [2]: 4 MFI
MFI [3]: 3.3 MFI
Molecule: mIgG (antibody)

Kd [6]: 79.5 pM
B2: chADP13-IgG1 (antibody, V domains shown)
VH: EVQLQQSGPEMVKPGTSVKISCKASGYTFTDYYINWVKQSHGKSLEWIGDISPNIGGATYNPKFKGKAILTVDKSARTAYMELRSLTSEDSAVYCCTRGGSSYPYFYAMDYWGQGTSVTVSS
VL: DIVMSQSPSSLAVSVGEKVTMSCKSSQSLLYSSNQKKYLAWYQQKPGQSPKLLIYWASTRESGVPDRFTGSGSGTDFTLTISSVKAEDLAVYYCQQFYSYPYTFGGGTKLEIKR
notes: Mouse ADP13 VL and VH joined to germline human IgG1 CL and CH; made in CHO cells; also called chimeric ADP13
